Source: patent publication US20250333512A1 (PLANTVAX, published 2025)

B1: Nb PGT121 (antibody)
heavy: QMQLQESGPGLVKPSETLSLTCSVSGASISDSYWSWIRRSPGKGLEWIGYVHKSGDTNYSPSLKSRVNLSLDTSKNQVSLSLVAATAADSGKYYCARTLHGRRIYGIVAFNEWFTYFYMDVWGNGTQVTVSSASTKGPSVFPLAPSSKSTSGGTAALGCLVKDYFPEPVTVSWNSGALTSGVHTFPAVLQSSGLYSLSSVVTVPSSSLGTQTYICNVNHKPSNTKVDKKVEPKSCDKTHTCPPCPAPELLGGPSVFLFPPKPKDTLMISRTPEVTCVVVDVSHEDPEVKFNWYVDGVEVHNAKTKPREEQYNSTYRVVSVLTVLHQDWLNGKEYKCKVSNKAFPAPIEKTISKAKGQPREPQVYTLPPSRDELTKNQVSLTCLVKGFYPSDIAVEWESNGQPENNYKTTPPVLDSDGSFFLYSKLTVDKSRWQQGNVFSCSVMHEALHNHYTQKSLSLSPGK
light: SDISVAPGETARISCGEKSLGSRAVQWYQHRAGQAPSLIIYNNQDRPSGIPERFSGSPDSPFGTTATLTITSVEAGDEADYYCHIWDSRVPTKWVFGGGTTLTVLRTVAAPSVFIFPPSDEQLKSGTASVVCLLNNFYPREAKVQWKVDNALQSGNSQESVTEQDSKDSTYSLSSTLTLSKADYEKHKVYACEVTHQGLSSPVTKSFNRGEC
modifications: Plant-type N-glycan at heavy-chain N312 (EU N297); letters unchanged.
B2: Nb PGT121-LS (antibody)
heavy: QMQLQESGPGLVKPSETLSLTCSVSGASISDSYWSWIRRSPGKGLEWIGYVHKSGDTNYSPSLKSRVNLSLDTSKNQVSLSLVAATAADSGKYYCARTLHGRRIYGIVAFNEWFTYFYMDVWGNGTQVTVSSASTKGPSVFPLAPSSKSTSGGTAALGCLVKDYFPEPVTVSWNSGALTSGVHTFPAVLQSSGLYSLSSVVTVPSSSLGTQTYICNVNHKPSNTKVDKKVEPKSCDKTHTCPPCPAPELLGGPSVFLFPPKPKDTLMISRTPEVTCVVVDVSHEDPEVKFNWYVDGVEVHNAKTKPREEQYNSTYRVVSVLTVLHQDWLNGKEYKCKVSNKAFPAPIEKTISKAKGQPREPQVYTLPPSRDELTKNQVSLTCLVKGFYPSDIAVEWESNGQPENNYKTTPPVLDSDGSFFLYSKLTVDKSRWQQGNVFSCSVLHEALHSHYTQKSLSLSPGK
light: B1 light
modifications: Plant-type N-glycan (partly unoccupied) at heavy-chain N312 (EU N297); letters unchanged.

Tests used:
Assay in all cases: cell-based or functional assay
[1] = target: chimeric receptor containing a rhesus macaque FcγRIIA ectodomain and the CD3ζ intracellular signaling domain (rhesus macaque, UniProt A0A7G8YX83 34-216)
[2] = target: chimeric receptor containing a rhesus macaque FcγRIIB ectodomain and the CD3ζ intracellular signaling domain (rhesus macaque, UniProt A0A7G8YX88 43-217)
[3] = target: chimeric receptor containing a rhesus macaque FcγRI ectodomain and the CD3ζ intracellular signaling domain (rhesus macaque, UniProt A0A7G8YX43 16-293)
[4] = target: chimeric receptor containing a rhesus macaque FcγRIII ectodomain and the CD3ζ intracellular signaling domain (rhesus macaque, UniProt A3RFZ7 21-206)
Chain of chimeric receptor containing a rhesus macaque FcγRIII ectodomain and the CD3ζ intracellular signaling domain (A3RFZ7 whole entry, change not shown, the tested form may be a part): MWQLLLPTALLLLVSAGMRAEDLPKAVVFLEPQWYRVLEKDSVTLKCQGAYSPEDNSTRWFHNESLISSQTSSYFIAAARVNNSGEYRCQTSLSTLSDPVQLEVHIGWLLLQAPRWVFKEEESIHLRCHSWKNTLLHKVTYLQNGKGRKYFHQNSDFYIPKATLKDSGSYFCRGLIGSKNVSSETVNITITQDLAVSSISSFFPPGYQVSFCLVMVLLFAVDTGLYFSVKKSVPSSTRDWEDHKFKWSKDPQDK

| Binder | EC50 (IL-2 ELISA) [1] | EC50 (IL-2 ELISA) [2] | EC50 (IL-2 ELISA) [3] | EC50 (IL-2 ELISA) [4] |
| --- | --- | --- | --- | --- |
| B1 | > 50 µg/mL | > 50 µg/mL | ~0.71 µg/mL | > 50 µg/mL |
| B2 | > 50 µg/mL | > 50 µg/mL | 1.2 µg/mL | > 50 µg/mL |
